Patent US5882644A, “Monoclonal antibodies specific for the platelet derived growth factor β receptor and methods of use thereof” (Protein Design Labs, Inc., priority 1996, dated 1999)
“Also recorded” adds a separate entry of the source.

Key:
[1] = system: PDGF-R β expressed on the cell membrane; test: Flow cytometry binding to CHO PDGF-R β transfectant cells; set-up: species or system human; details: 0.1-1 μg/ml antibody; CHO PDGF-R β transfectants vs untransfected CHO
Experimental: The cells were washed once in cold PBS and resuspended in 50 μl of PBS containing 10 μg/ml FITC-conjugated goat anti-mouse IgG and incubated for 30 min. After another wash, the cells were fixed by resuspension in 0.25 ml of paraformaldehyde in PBS, and analyzed for fluorescence by flow cytometry on a FACScan (Becton Dickinson).

[2] = system: PDGF-R β; test: Competitive binding with 125I-PDGF BB on transfectant cells expressing PDGF-R β; set-up: species or system human; details: 4° C.
Experimental: To determine the ability of muM4TS.11 and muM4TS.22 to block binding of PDGF BB to PDGF-R β, the following competitive binding experiments were performed. Transfectant cells expressing PDGF-R β were harvested, washed twice with cold DMEM, and resuspended at 10^6 cells/ml in DMEM. The assay was carried out in triplicate by incubating 100 μl of the cell suspension with either: 1) no antibody (to determine total binding); 2) varying concentrations of antibody; or 3) 100 ng cold PDGF BB (to saturate specific binding sites and determine non-specific binding) for 15 minutes at 4° C. Each sample received 1.0 ng ^125 I-labeled PDGF BB, and was incubated for an additional 60 min at 4° C. Unbound ^125 I-labeled PDGF BB was separated from that bound to the cell by layering the sample over a mixture of 80% dibutylphthalate, 20% olive oil in a microfuge tube, and microfuging briefly to pellet the cells through the oil mixture. The tubes were placed in dry ice to freeze the contents, the tip of the tube containing the cell pellet was cut off into a vial, and radioactivity was determined in a gamma counter.
To assess the ability of HuM4TS.22 to block the binding of PDGF BB to its receptor, competitive binding experiments of HuM4TS.22 with ^125 I-PDGF BB were performed according to the method described in Example 3.
To assess the ability of muM4TS.11 and HuM4TS.11 to block the binding of PDGF BB to the PDGF β receptor, competitive binding experiments of these antibodies with ^125 I-PDGF BB were performed according to the method described in Example 3.

[3] = system: CHO transfectant cell line expressing PDGF-R β (CHO C4); test: Inhibition of PDGF BB-induced proliferation (3H-thymidine) of CHO C4 cells; type: cell-based, Chinese hamster
Experimental: To determine the ability of muM4TS.11 and muM4TS.22 to block PDGF-mediated proliferation, a CHO transfectant cell line expressing PDGF-R β (CHO C4) was generated, as described above. Proliferation of this line, as measured by incorporation of ^3 H-thymidine by DNA synthesis, is stimulated several-fold by PDGF BB. The CHO PDGF-R β transfectants were plated in a 96-well tissue culture plate at about 50,000 cells/well in Ham's F-12+10% FCS and incubated for 1-2 days. The medium was removed, and the cells were washed once with serum-free medium (Ham's F-12+1 mg/ml BSA) and incubated in this media for 1-2 days to put them in a quiescent state. The appropriate amount of antibody in serum-free medium was added, and after 1-3 hours, 50 ng/ml PDGF BB was added. After overnight incubation, 1 μCi ^3 H-thymidine was added, and after a final 4 hour incubation, the cells were harvested using a PHD cell harvester (Cambridge Technology) and analyzed with a scintillation counter.

[4] = Pharmacokinetics in rats (plasma antibody by ELISA); type: in vivo, rat
Experimental: In preliminary experiments to determine the pharmacokinetics of muM4TS.11 in rats, an initial dose of antibody was injected and blood samples obtained at 1, 2, 3, 6, 12, 24, 36, and 48 hr. Antibody levels in plasma were measured by ELISA. The half-life of the antibody in rats was approximately 1 day. […] (In humans, proportionally smaller and less frequent doses are likely to be sufficient for a humanized anti-PDGF-R β antibody such as HuM4TS.11 or HuM4TS.22 to be effective, because of the expected longer half-life in humans and higher affinity for human PDGF-R β of these non-immunogenic HuAbs).

[5] = system: intima of left common carotid artery after balloon injury; test: Rat carotid balloon injury model, intimal thickening; type: in vivo; details: 21 days after injury
From the text: To perform the vascular injury, under sterile conditions and after general anesthesia the left common carotid arteries of S-D rats were exposed. Anesthesia was induced with ketamine and xilaxine by IP injection. Additional anesthesia was given at half a dose every forty-five minutes. Through a midline neck incision the left common, external and internal carotid arteries were exposed. A 2F Fogarty balloon catheter was introduced in the left external carotid artery. The balloon was inflated sufficiently to generate slight resistance and withdrawn 3 times to consistently produce endothelial denudation of the entire length of the left common carotid artery (LCCA), thus simulating vascular injury after balloon angioplasty in human patients. Upon removal of the catheter, the left external carotid artery was ligated with 3.0 silk. The skin was closed with surgical wound clips. […]
For measurement of intimal thickening, the left common carotid arteries were sectioned every 3 mm, from the proximal to the distal end. […] Cross-sectional areas for lumen, intima and media of the artery were determined as a mean of the 3 segments with the greatest intimal thickness. […] Differences between placebo or control groups and treated groups were analyzed for statistical significance by analysis of variance and a two-tailed, unpaired Student's t test […]

B1: muM4TS.11: murine monoclonal antibody to PDGF-R β, variable regions SEQ ID NOS:10 and 12; epitope in fourth extracellular domain (antibody, V domains shown)
VL: METETLLLWVLLLWVPGSTGDIVLTQSPPSLAVSLGQRATISCRASESVDSYGNSFMHWYQQKPGQPPKLLIYRASNLESGIPARFSGGGSRTDFTLTINPVEADDVATYYCQQSNEDPPTFGGGTKLEIK
VH: MERHWIFLFLFSVTAGVHSQVQLQQSGAEVAKPGASVKMSCKASGYTFTNCWMHWVKQRPGQGLEWIGYINPTTGYSEYNQNFKDKATLTADKSSNTAYIQLSSLTSEDSAVYYCTSNYGHYDWFANWGQGTLVT
- specific binding to membrane PDGF-R β by flow cytometry [1]: specifically bound to CHO PDGF-R β transfectant cells but not to untransfected CHO cells
- blocking of 125I-PDGF BB binding to PDGF-R β [2]: did not; also recorded: neither muM4TS.11 nor HuM4TS.11 were able to inhibit binding of PDGF BB to its receptor
- inhibition of PDGF-mediated proliferation compared with another antibody [3]: about two times more effectively than with HuM4TS.11
- inhibition of PDGF BB-induced proliferation ([3]; 50 ng/ml PDGF BB, sufficient antibody concentration): completely inhibited proliferation of the cells induced by PDGF BB; also recorded: almost completely inhibited the stimulation of proliferation by PDGF BB
- time antibody level stays above the in vitro inhibitory concentration ([4]; 4 mg bolus, then 2 mg IV every 24 hr for 4 days): at least 7 days
- half-life of the antibody ([4]; preliminary experiments, plasma): approximately 1 day
- less thickening of the artery intima than placebo or control groups ([5]; high dose: 4 mg bolus, then 2 mg IV every 24 hr for 4 days): approximately 60%
- less thickening of the artery intima than placebo or control groups ([5]; low dose: 10% of the high-dose regimen): approximately 40%
